Data set [1] deals with primary human cell cultures (11 cell types). Put plainly: Custom gene array, 11 human cell types in normoxia or hypoxia for 6 hr and 18 hr. Type of data set: cell-based. An outline of the steps: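 Values are each gene's expression relative to its median over all cell types and conditions, after per-array normalisation to control genes and merging of replicate arrays. Cells were 11 human types, mostly unmodified primary cultures, kept in normoxia or exposed to hypoxia for 6 hr or 18 hr.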

The subject of a further data set is human macrophages. Put plainly: Custom gene array, macrophages with no cytokines, IL-10 or LPS + IFN, in normoxia and hypoxia. The format is cell-based. The settings on record: Table 16, referenced to median of the gene over 6 conditions. On the procedure:
Macrophages were derived and cultured as described elsewhere in the specification. A total of 6 experimental conditions were analysed, as shown below. Where cells were treated with cytokines or hypoxia (0.1% oxygen), this was for 6 hr. Lipopolysaccharide (LPS) (from E.coli 026:B6; Sigma), gamma Interferon (IFN) and Interleukin-10 (IL-10) were all used at a final concentration of 100 ng/ml. The effect of gamma Interferon and Lipopolysaccharide is to activate macrophages, with a Th1 biased phenotype, as found in many inflammatory conditions. Interleukin-10 is a Th2 cytokine and de-activates macrophages, and suppresses their effector functions.

B1: p1G20 (nucleic acid, listed as Homo Sapiens)
DNA: GAGTAGGAGTGCCTCCTTGTCTGCACTGCTGGTATGGGGTTAGGCCAGGTAGGACATTCCAGAGGGGCTTCTGAAAACCAAGAGTCCCTGGGGAAAGGGAACAGAGTAAGGCAGGCCTTGTTCTCACTGCCCTCTAAGGGAACTTGGTCACTCGGCACTTTTAAGCCTCAGTTTCTCCAGTTCAATAATAAGGACAAGAGCTTTTCCCATGCATTCTCTTTCCCCGGGAAAGTTGACTGAGGTGACCAGTAATAGAATTGAAAAGGGAGAGTGTCTTCAGTGCAATGTGGCATCCTGGATTGGGTCTTGGAACAAAAACAGGACATTAGTGGGAAAATTGGAAATCTGAAAAAAGTCTGAATTTTAGTTAATATACCAATTTCAGTCTCTTGGTTTTGACAGATGTACCATGGTGATGTAAGATGTTGACCTTGGGGTAGGCTGGGTGAAGGGTATACAGGAACTCTTTGTACTATCTCTGCAACTTCTCTGTAAATCTAGTATCATTCCAAAATAAAAGTTTATTTAATTTAAAAAAAAAA
Turning to B1, the “HIGHEST FOLD CHANGE IN HYPOXIA (hr hypoxia + cell type)” value in data set [1] (DOWN, 18 hr cardiomyocyte) is 4.17 DOWN (18 hr cardiomyocyte) ^ fold. Also, the mRNA expression level in data set [1] (cell type #1, HY (hypoxia) 6 hr) is 0.48; in data set [1] (cell type #1, HY (hypoxia) 18 hr), 0.50; in data set [1] (cell type #1, NO (normoxia)), 0.74; in data set [1] (cell type #2, HY (hypoxia) 6 hr) it was 0.66; in data set [1] (cell type #2, HY (hypoxia) 18 hr) it was 0.36; in data set [1] (cell type #2, NO (normoxia)) it was 1.54. In addition, the mRNA expression level is 1.26 in data set [1] (cell type #3, HY (hypoxia) 6 hr); 1.03 in data set [1] (cell type #3, HY (hypoxia) 18 hr); 1.64 in data set [1] (cell type #3, NO (normoxia)); 0.84 in data set [1] (cell type #4, HY (hypoxia) 6 hr); 0.84 in data set [1] (cell type #4, HY (hypoxia) 18 hr); 0.99 in data set [1] (cell type #4, NO (normoxia)). The mRNA expression level worked out at 1.19 in data set [1] (cell type #5, HY (hypoxia) 6 hr); 1.34 in data set [1] (cell type #5, NO (normoxia)); 0.98 in data set [1] (cell type #6, HY (hypoxia) 6 hr); 1.29 in data set [1] (cell type #6, NO (normoxia)). In addition, the “mRNA EXPRESSION (experimental condition) #1” value in the data set with human macrophages (#1 no cytokines/normoxia) was found to be 1.45. The “mRNA EXPRESSION (experimental condition) #2” value in the data set with human macrophages (#2 no cytokines/hypoxia) worked out at 0.73. Besides, in the data set on human macrophages (#3 IL-10/normoxia), the “mRNA EXPRESSION (experimental condition) #3” value worked out at 1.60. Also, in the data set with human macrophages (#4 IL-10/hypoxia), the “mRNA EXPRESSION (experimental condition) #4” value is 1.12. Besides, the “mRNA EXPRESSION (experimental condition) #5” value in the data set on human macrophages (#5 LPS/IFN/normoxia) came out at 0.57. Moreover, the “mRNA EXPRESSION (experimental condition) #6” value in the data set on human macrophages (#6 LPS/IFN/hypoxia) is recorded as 0.44.

(Values after patent US20030203372A1, “Analysis method” (priority 2000, published 2003).)
